Test results published in paper PMC9712074.
pKd: −log10 of the molar value.

Molecular target: SA58 (BD55-5840), human IgG1 (human)
Assay: SPR

For “SARS-CoV-2 (BA.4/BA.5) Spike RBD Protein (His Tag) (from UniProt P0DTC2) (domain or fragment)”, the pKd was 9.02.
